Data as given in the supplement of paper PMC10724198.
± gives the standard deviation of the averaged measurements.

Test system: Saccharomyces cerevisiae
Test: protein stability index of tFT-peptide fusion (C-terminal peptide) (PSI (0-1 scale)); higher = more stable (slower turnover)
Conditions: temperature: 30 C
Method: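 MPS profiling in S. cerevisiae of the yeast C-terminome library: the last 12 aa of each annotated ORF are fused to the C-terminus of a sfGFP-mCherry timer, after a GGGS linker. Cells are FACS-sorted into 8 mCherry/sfGFP bins and deep-sequenced. PSI runs from 0 (unstable) to 1 (stable); wild type and das1Δ backgrounds, two technical replicates each.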

[1] = genetic background: das1 deletion

Row | Sequence | protein stability index [1] | protein stability index (genetic background: wild type)
1 | SLEKELISRGYR [CDC73 C-terminal 12 aa] | 0.724 ± 0.0099 | 0.685 ± 0.02
2 | SLKNYHNNTAQA [DBP6 C-terminal 12 aa] | 0.688 ± 0.031 | 0.68 ± 0.0075
3 | SLNRPAERGGNR [YNL143C C-terminal 12 aa] | 0.69578 ± 0.00021 | 0.688 ± 0.041
4 | SLPRQAGGRKKK [GLC7 C-terminal 12 aa] | 0.715 ± 0.033 | 0.668 ± 0.052
5 | SLQVILEFVSQH [SXM1 C-terminal 12 aa] | 0.654 ± 0.029 | 0.6248 ± 0.0024
6 | SLYPRFSGRCKP [DED81 C-terminal 12 aa] | 0.703 ± 0.011 | 0.6745 ± 0.0059
7 | SMVSCLLTLYVL [GTT3 C-terminal 12 aa] | 0.4741 ± 0.0017 | 0.4796 ± 0.0038
8 | SNENARNNNPYL [FLC2 C-terminal 12 aa] | 0.6906 ± 0.0056 | 0.705 ± 0.043
9 | SNFSRTLGLEFI [YGL041C C-terminal 12 aa] | 0.711 ± 0.0098 | 0.716 ± 0.077
10 | SNSSICFPLTIF [YKL136W C-terminal 12 aa] | 0.6337 ± 0.0033 | 0.2798 ± 0.0007
11 | SNSSKNRMNNYR [SPT6 C-terminal 12 aa] | 0.702 ± 0.017 | 0.721 ± 0.034
12 | SPISVDFSSYLS [NBP1 C-terminal 12 aa] | 0.734 ± 0.015 | 0.72 ± 0.058
13 | SRDYEETEYSVI [SPP381 C-terminal 12 aa] | 0.709 ± 0.025 | 0.687 ± 0.062
14 | SRRRPFIGPETV [YMR057C C-terminal 12 aa] | 0.709 ± 0.037 | 0.703 ± 0.0072
15 | SRVDEVVTKYSH [AAH1 C-terminal 12 aa] | 0.7 ± 0.029 | 0.667 ± 0.028
16 | SSANIDINSIAK [SPO22 C-terminal 12 aa] | 0.7 ± 0.04 | 0.729 ± 0.11
17 | SSASPEVDCRCG [YLR444C C-terminal 12 aa] | 0.705 ± 0.0094 | 0.7312 ± 0.0057
18 | SSFSLSLPRLNQ [SPT7 C-terminal 12 aa] | 0.6893 ± 0.0022 | 0.675 ± 0.028
19 | SSIQDLLSKLAN [RTT103 C-terminal 12 aa] | 0.691 ± 0.02 | 0.7927 ± 0.0052
20 | SSLPYDILPALL [YGL199C C-terminal 12 aa] | 0.703 ± 0.004 | 0.6882 ± 0.0011
21 | SSSSTSSSATKN [TPS1 C-terminal 12 aa] | 0.703 ± 0.017 | 0.685 ± 0.047

Row | Sequence | protein stability index [1] | protein stability index (genetic background: wild type)
22 | STFSKPFSTISK [VHR2 C-terminal 12 aa] | 0.6906 ± 0.0026 | 0.682 ± 0.059
23 | STHGPGIVIDFA [MRPL1 C-terminal 12 aa] | 0.724 ± 0.011 | 0.761 ± 0.089
24 | STLAGEWRLIIA [YBR284W C-terminal 12 aa] | 0.498 ± 0.0089 | 0.518 ± 0.019
25 | SVSDPVKSEDSS [NCB2 C-terminal 12 aa] | 0.68 ± 0.034 | 0.689 ± 0.033
26 | SVYEHEHEKTFI [FUR4 C-terminal 12 aa] | 0.7127 ± 0.0018 | 0.706 ± 0.0091
27 | SWSGDNEAHRWT [NPT1 C-terminal 12 aa] | 0.716 ± 0.023 | 0.686 ± 0.016
28 | TAEEQEQSACQC [YPT6 C-terminal 12 aa] | 0.6863 ± 0.0043 | 0.687 ± 0.021
29 | TAESDDDEEDDE [TIF5 C-terminal 12 aa] | 0.688 ± 0.026 | 0.709 ± 0.052
30 | TATSSSIILSDK [SSN2 C-terminal 12 aa] | 0.713 ± 0.032 | 0.665 ± 0.045
31 | TDELWEMLLDQA [MET12 C-terminal 12 aa] | 0.762 ± 0.039 | 0.723 ± 0.072
32 | TELRHKRTGGKH [ILV2 C-terminal 12 aa] | 0.691 ± 0.0092 | 0.7268 ± 0.002
33 | TGKDVMKGALGF [SRO7 C-terminal 12 aa] | 0.6953 ± 0.0023 | 0.667 ± 0.024
34 | TGRDMMKSAVGF [SRO77 C-terminal 12 aa] | 0.714 ± 0.015 | 0.661 ± 0.016
35 | TGTSTEAPSAAN [NCL1 C-terminal 12 aa] | 0.6661 ± 0.00092 | 0.6578 ± 0.0053
36 | THQKKIAKKKHQ [YPR015C C-terminal 12 aa] | 0.741 ± 0.053 | 0.695 ± 0.014
37 | TIITKYEMLVRT [YOL134C C-terminal 12 aa] | 0.52 ± 0.015 | 0.5399 ± 0.0028
38 | TKKSSSHHRTGK [DIG1 C-terminal 12 aa] | 0.697 ± 0.014 | 0.688 ± 0.016
39 | TLEDEALQRNSK [JNM1 C-terminal 12 aa] | 0.722 ± 0.0093 | 0.686 ± 0.017
40 | TLNVSNISHYSL [GAL80 C-terminal 12 aa] | 0.7033 ± 0.0016 | 0.704 ± 0.0075
41 | TLQSEINISVKH [ENA5 C-terminal 12 aa] | 0.671 ± 0.0081 | 0.6909 ± 0.0042
42 | TLTDLRDELRGL [NUP120 C-terminal 12 aa] | 0.678 ± 0.018 | 0.721 ± 0.024

Row | Sequence | protein stability index [1] | protein stability index (genetic background: wild type)
43 | TLWNDNTSYPFL [PDR3 C-terminal 12 aa] | 0.756 ± 0.015 | 0.7571 ± 0.0029
44 | TNDSFNIVALTP [PRP19 C-terminal 12 aa] | 0.68811 ± 0.00023 | 0.654 ± 0.017
45 | TPENNHLKWLIK [UGX2 C-terminal 12 aa] | 0.716 ± 0.024 | 0.685 ± 0.035
46 | TPKPVDTDDEED [NEW1 C-terminal 12 aa] | 0.685 ± 0.023 | 0.707 ± 0.035
47 | TPLGQTLLDSRR [DAL1 C-terminal 12 aa] | 0.6757 ± 0.0015 | 0.67 ± 0.011
48 | TPQEILQRFQKQ [EAF1 C-terminal 12 aa] | 0.6812 ± 0.0053 | 0.732 ± 0.029
49 | TQSTVIATTSSV [NDL1 C-terminal 12 aa] | 0.6904 ± 0.0063 | 0.694 ± 0.027
50 | TRDAPRERSPTR [NPL3 C-terminal 12 aa] | 0.716 ± 0.016 | 0.65 ± 0.018
51 | TRFFDSKYFGCD [URK1 C-terminal 12 aa] | 0.701 ± 0.0078 | 0.73 ± 0.072
52 | TRSAWDRAQRRL [LCP5 C-terminal 12 aa] | 0.697 ± 0.015 | 0.674 ± 0.013
53 | TSAGSNIFSTGQ [BBP1 C-terminal 12 aa] | 0.699 ± 0.011 | 0.752 ± 0.043
54 | TSASSNLDDSFS [YPR002C-A C-terminal 12 aa] | 0.69 ± 0.019 | 0.6996 ± 0.002
55 | TSGFCSLETSAE [YER023C-A C-terminal 12 aa] | 0.697 ± 0.0079 | 0.735 ± 0.057
56 | TSGGSIVLKGSS [YGR068W-A C-terminal 12 aa] | 0.701 ± 0.026 | 0.6688 ± 0.0037
57 | TSNDLPAECVIS [EGH1 C-terminal 12 aa] | 0.72 ± 0.0097 | 0.68843 ± 0.00034
58 | TSNNIFGSDQKY [MNN14 C-terminal 12 aa] | 0.694 ± 0.016 | 0.741 ± 0.037
59 | TSSTPKSPSSGS [SMY1 C-terminal 12 aa] | 0.691 ± 0.018 | 0.67 ± 0.014
60 | TSTLAVIPYPAF [YLR466C-B C-terminal 12 aa] | 0.7177 ± 0.0022 | 0.755 ± 0.045
61 | TTLCILFLFFTW [GOS1 C-terminal 12 aa] | 0.386 ± 0.0071 | 0.401 ± 0.014
62 | TTVPIVSKKRQK [POP3 C-terminal 12 aa] | 0.685 ± 0.033 | 0.699 ± 0.01
63 | TVNLIKSQLVRG [COQ9 C-terminal 12 aa] | 0.6064 ± 0.0011 | 0.635 ± 0.047

Row | Sequence | protein stability index [1] | protein stability index (genetic background: wild type)
64 | TVRALNPFMKRV [SSD1 C-terminal 12 aa] | 0.689 ± 0.046 | 0.656 ± 0.039
65 | TYCEKYHVPSIQ [YAE1 C-terminal 12 aa] | 0.6915 ± 0.0042 | 0.677 ± 0.04
66 | TYFSKQFLKKEL [LTP1 C-terminal 12 aa] | 0.746 ± 0.017 | 0.742 ± 0.009
67 | TYRLGEWSKISV [POP1 C-terminal 12 aa] | 0.694 ± 0.011 | 0.6913 ± 0.0047
68 | VAAKIAALAGQQ [RPL5 C-terminal 12 aa] | 0.708 ± 0.026 | 0.717 ± 0.028
69 | VAQNPVLAAVIA [KAP123 C-terminal 12 aa] | 0.455 ± 0.013 | 0.466 ± 0.015
70 | VARLKDESENVW [COX16 C-terminal 12 aa] | 0.689 ± 0.018 | 0.732 ± 0.041
71 | VAVASASSSASS [VPH1 C-terminal 12 aa] | 0.683 ± 0.019 | 0.682 ± 0.032
72 | VDDIVSGVRKQE [CCT3 C-terminal 12 aa] | 0.691 ± 0.028 | 0.677 ± 0.011
73 | VDDSDGDETMQI [TDA1 C-terminal 12 aa] | 0.70725 ± 0.00053 | 0.7369 ± 0.0011
74 | VEDQSIEVKKEK [YPC1 C-terminal 12 aa] | 0.684 ± 0.035 | 0.7136 ± 0.007
75 | VEFKYPEEIFHG [TPP1 C-terminal 12 aa] | 0.712 ± 0.012 | 0.6782 ± 0.0027
76 | VEGGGVQYTIVS [YDL023C C-terminal 12 aa] | 0.679 ± 0.0039 | 0.669 ± 0.0067
77 | VEVEYLLRRLEE [ARO7 C-terminal 12 aa] | 0.691 ± 0.013 | 0.6589 ± 0.0044
78 | VFKMIMFIASNE [STU1 C-terminal 12 aa] | 0.581 ± 0.0076 | 0.5559 ± 0.0028
79 | VFLIISQHSLHS [YBL113W-A C-terminal 12 aa] | 0.6652 ± 0.0044 | 0.646 ± 0.029
80 | VFTRLYSTLWSY [YDR149C C-terminal 12 aa] | 0.6867 ± 0.0054 | 0.145 ± 0.0086
81 | VIKCFTSSDMTS [NAG1 C-terminal 12 aa] | 0.701 ± 0.026 | 0.683 ± 0.053
82 | VKDFYKRLETLK [RRM3 C-terminal 12 aa] | 0.6914 ± 0.0038 | 0.7042 ± 0.0011
